Test [1] deals with T1, human IL-33 (cell-based blocking assay of Example 2) (human, UniProt O95760 112-270).
T1 sequence (looked up): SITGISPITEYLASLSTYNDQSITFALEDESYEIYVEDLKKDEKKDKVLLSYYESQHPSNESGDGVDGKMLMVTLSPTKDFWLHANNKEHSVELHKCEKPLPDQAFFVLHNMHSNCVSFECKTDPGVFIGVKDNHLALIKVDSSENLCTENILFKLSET
The test is described as follows: cell-based or functional assay.

Test [2] deals with T2, cyno IL-33 (cell-based blocking assay of Example 2) (cynomolgus monkey, UniProt A0A2K5W3I1 95-269).
T2 sequence: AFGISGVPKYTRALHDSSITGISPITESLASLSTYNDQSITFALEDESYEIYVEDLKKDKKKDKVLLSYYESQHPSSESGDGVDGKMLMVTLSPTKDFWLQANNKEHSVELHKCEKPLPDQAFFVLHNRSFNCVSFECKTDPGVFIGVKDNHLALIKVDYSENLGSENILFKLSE
As to the kind of experiment: cell-based or functional assay.

In test [3] the target is T3, human IL-33 (Genentech, huIL33.his) (human, UniProt O95760 112-270).
T3 sequence (looked up): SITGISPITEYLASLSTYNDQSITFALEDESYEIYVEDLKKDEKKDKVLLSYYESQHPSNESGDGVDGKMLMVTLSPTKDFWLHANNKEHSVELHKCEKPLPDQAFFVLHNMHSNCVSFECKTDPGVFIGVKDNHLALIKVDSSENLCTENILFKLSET
The test is described as follows: SPR Biacore.

The target of test [4] is T4, cyno IL-33 (construct not stated) (cynomolgus monkey, UniProt A0A2K5W3I1 112-269).
T4 construct: also called cynomolgus IL-33; cyno IL-33 (Genentech)
T4 sequence: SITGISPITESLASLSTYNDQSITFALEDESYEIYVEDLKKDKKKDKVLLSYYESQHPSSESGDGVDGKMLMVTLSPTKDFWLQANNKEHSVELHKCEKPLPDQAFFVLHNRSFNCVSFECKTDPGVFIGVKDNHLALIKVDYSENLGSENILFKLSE
The test is described as follows: SPR Biacore. (In general: SPR reads the build-up and loss of mass on a sensor chip optically.)

Test [5] addresses T1, human IL-33 (cell-based blocking assay …). The test is described as follows: cell-based or functional assay. The source holds these as a separate data set.
Test [6] addresses T2, cyno IL-33 (cell-based blocking assay …). The test is described as follows: cell-based or functional assay. This is another data set of the same source.

Several values for one entry are separate records, joined by “and”; a condition that tells them apart may be missing. Equal entries are not always repeated.

B1: 4G12.FW4 (antibody, V domains shown)
VH: ELQLQESGPGLVKPSETLSLTCTVSGGSIRSSIFYWGWIRQPPGKGLEWIGSIYYSGRTYYNPSLKSRVTISVDTSKNQFSLMLTSVTAADTAVYYCARAGGLYNWNDESFSFYMDVWGQGTTVTVSS
VL: EIVLTQSPGTLSLSPGERATLSCRASQSFSSSYLAWYQQKPGQAPRLLIYGASSRATGIPDRFSGSGSGTDFTLTISRLEPEDFAVYYCQQYDRSPLTFGGGTKVEIK
notes: Derivative of 4G12
A word on the Kd: it is the equilibrium constant for the complex coming apart. A higher Kd goes with a looser complex. Turning to B1, the “Cell assay (hu) IC90” value in test [1] is 0.17 µg/mL and 1.12 nM. Further, the “Cell assay (cy) IC90” value in test [2] was 0.034 µg/mL and 0.224 nM. For the same molecule, the Kd in test [3] is 0.038 nM; in test [4], 0.07 nM.

B2: 10C12 (antibody, V domains shown)
VH: DVNLVESGGGSVKPGGSLKLSCVASGFTFSSFSMSWVRQTPEKRLEWVATISGGKTFTDYVDSVKGRFTISRDDAKNTLYLQMSSLESEDTAMYYCTRANYGNWFFEVWGAGTTVAVSS
VL: DIVLTQSPGFLVVSLGQRATISCRASESVAKYGLSLLNWFQQKPGQPPKLLIFAASNRGSGVPARFSGSGSGTDFSLNIHPMEEDDTAMYFCQQSKEVPFTFGSGTKLEIK
notes: Murine hybridoma clone from IL33 KO mouse
As for B2, the “Cell assay (hu) IC90” value in test [1] was 0.002 µg/mL and 0.013 nM. For the same molecule, the “Cell assay (cy) IC90” value in test [2] is 0.193 µg/mL and 1.27 nM. Moreover, the equilibrium dissociation constant (Kd) in test [3] is at most 0.007 nM; in test [4], 0.07 nM. Besides, the “IC50 (HEK-BLUE SEAP reporter, IL-33 blocking)” value (shortened to “IC50”) in test [5] was determined as 0.0039 nM; in test [6], 0.142 nM. Also, the “IC90 (HEK-BLUE SEAP reporter, IL-33 blocking)” value in test [5] was 18.2 pM and 0.0027 µg/mL; in test [6], 1290 pM and 0.193 µg/mL.

B3: 10H2 (antibody, V domains shown)
VH: EVKLEESGGGLVQPGGSMKLSCVASGFTFSNYWMNWVRQSPEKGLEWMAEITLKFNNYSTHYAESVKGRFSISRDDSKSTVYLQMNNLRAEDTGIYYCARRNYGDWYINVWGAGTTVTVSS
VL: DIVLTQSPTSLAVSLGQRATISCRASESVDKFGMSFLNWFQQKPGQPPKLLIFVASSQGSGVPARFSGSGSGTDFSLNIHPVEEDDTAMYFCQQSKDIPYTFGGGTKLEIK
notes: Murine hybridoma clone (Balb/C)
As for B3, the “Cell assay (hu) IC90” value in test [1] is 0.003 µg/mL and 0.02 nM. In addition, the “Cell assay (cy) IC90” value in test [2] is 0.041 µg/mL and 0.27 nM. Moreover, the Kd amounted to 0.06 nM in test [3] and 0.09 nM in test [4]. The “IC50” value in test [5] came to 0.0053 nM; in test [6] it was 0.0174 nM. Moreover, the “IC90 (HEK-BLUE SEAP reporter, IL-33 blocking)” value is 31 pM and 0.0047 µg/mL in test [5]; 271 pM and 0.0407 µg/mL in test [6].

B4: 10C12.38.H6.87Y.58I (antibody, V domains shown)
VH: EVQLVESGGGLVQPGGSLRLSCAASGFTFSSFSMSWVRQAPGKGLEWVATISGGKTFTDYVDSVKGRFTISRDDSKNTLYLQMNSLRAEDTAVYYCTRANYGNWFFEVWGQGTLVTVSS
VL: EIVLTQSPATLSLSPGERATLSCRASESVAKYGLSLLNWFQQKPGQPPRLLIFAASNRGSGIPARFSGSGSGTDFTLTISSLEPEDFAVYYCQQSKEVPFTFGQGTKVEIK
For the molecule B4, in test [1], the “Cell assay (hu) IC90” value is 0.004 µg/mL and 0.026 nM. In addition, the “Cell assay (cy) IC90” value in test [2] was 0.185 µg/mL and 1.22 nM. Further, the Kd turned out to be 0.015 nM in test [3] and 0.037 nM in test [4]. Further, the “IC50” value in test [5] was 0.002 nM; in test [6], 0.181 nM. Further, the “IC90 (HEK-BLUE SEAP reporter, IL-33 blocking)” value in test [5] was 20.5 pM and 0.0031 µg/mL; in test [6] it was 1220 pM and 0.183 µg/mL.

B5: 9F6 (antibody, V domains shown)
VH: QVQLQQSGNDLVKPGASVKLSCKASGYTFTSYWINWIKQRPGQGLEWIGRIAPGSGFISYNELFKDKATLTVDTSSSTAYIQLGSLSSEDSAVYFCAREFYYGSFYGGFAYWGQGTLVTVSA
VL: DIQMNQSPSSLSASLGDTITITCHASQNIHVWLSWYQQKPGNIPKLLIYKASTLHTGVPSRFNGSGSGTGFTLTISSLQPEDIATYYCQQGQSSPLTFGAGTKLEVK
notes: as for B3
With B5, the “Cell assay (hu) IC90” value in test [1] is 0.011 µg/mL and 0.73 nM. In addition, in test [2], the “Cell assay (cy) IC90” value is > 1.5 µg/mL and > 9.9 nM. For the same molecule, the equilibrium dissociation constant (Kd) came out at 0.07 nM in test [3] and 0.91 nM in test [4].

B6: 2B6 (antibody, V domains shown)
VH: EVLLQQSGPELVKPGASVKISCNASGYTFSDYNMNWVKQSHGKSLESIGDINPKNGDTFYNQNFKDKATLTIDKSSSTVYMELRSLTSEDTAMYYCARHYYYGSSYGGFVYWGQGTLVTVAA
VL: DIQMNQSPSSLSASLGDTITITCHASQNINVWLSWYQQKAGNNPKLLIYAASKLHTGVPSRFTGSGSGTLFTLTISSLQPEDIATYYCQQGQSYPLTFGSGTNLELK
notes: as for B3
Take B6: the “Cell assay (hu) IC90” value in test [1] was 0.02 µg/mL and 0.13 nM. In addition, the “Cell assay (cy) IC90” value in test [2] was 0.526 µg/mL and 3.47 nM. The Kd in test [3] turned out to be 0.03 nM; in test [4], 0.33 nM.

B7: 6C11 (antibody, V domains shown)
VH: EVKLEESGGGLVQPGGSMKLSCVASGFTFNKFWMNWVRQSPEKGLEWVAEIRLNSINYVKDYAESVKGRFTISRDDSKNSVYLQMNNLRAEDTGIYYCIRRNYGNWFFEIWGAGTTVTVSS
VL: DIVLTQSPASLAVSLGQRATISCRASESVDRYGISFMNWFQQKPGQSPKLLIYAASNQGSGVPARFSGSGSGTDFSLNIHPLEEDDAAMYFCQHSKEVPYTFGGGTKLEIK
notes: as for B3
On to B7, for which the “Cell assay (hu) IC90” value in test [1] was 0.021 µg/mL and 0.14 nM. For the same molecule, the “Cell assay (cy) IC90” value in test [2] is > 1.5 µg/mL and > 9.9 nM. In addition, the values for the dissociation constant Kd in test [3] and in test [4] were 0.06 nM and 0.79 nM, respectively. For the same molecule, the “IC50” value in test [5] is 0.0213 nM; in test [6] it was over 10 nM. Besides, the “IC90 (HEK-BLUE SEAP reporter, IL-33 blocking)” value in test [5] was 120 pM and 0.0181 µg/mL; in test [6], > 10000 pM and > 1.5 µg/mL.

B8: 101.B11 (antibody, V domains shown)
VH: QVQLVQSGGGLVQPGGSLKLSCAASGFTFSGSAMHWVRQASGKGLEWVGRIRSRNNNYATAYAASVKGRFTISRDDSKRTTYLQMNSLKTEDTAVYYCTRLQQPPFDYWGQGTLVTVSS
VL: DIQMTQSPSSLSASVGDRVTITCRASQGIRNDLDWYQQKPGKAPKRLIYAASSLQSGVPSRFNGSGSGTEFTLTISSLQPEDFATYYCLQHDSYPLTFGGGTKVEIK
notes: Transgenic mouse / phage display
On to B8, for which the “Cell assay (hu) IC90” value in test [1] amounted to 0.3 µg/mL. Further, the dissociation constant Kd came to 0.527 nM in test [3] and 0.783 nM in test [4].
